Laboratory results as given in patent US7271143B1, “Peptides for regulation of urokinase (uPA) and tissue type (tPA) plasminogen activator and method of optimizing therapeutic efficacy” (Thrombotech Ltd., priority 2001, dated 2007).
Like-named read-outs stand apart in the source and are kept apart here.

Experiments:
[1] = rabbits, arterial venous shunt; cited from earlier work
[2] = target: T1, fibrin (Homo sapiens, UniProt P02671+P02675+P02679); conditions: greater than tPA; cited from earlier work
T1 sequence (P02671 20-644 isoform P02671-2 limits assumed): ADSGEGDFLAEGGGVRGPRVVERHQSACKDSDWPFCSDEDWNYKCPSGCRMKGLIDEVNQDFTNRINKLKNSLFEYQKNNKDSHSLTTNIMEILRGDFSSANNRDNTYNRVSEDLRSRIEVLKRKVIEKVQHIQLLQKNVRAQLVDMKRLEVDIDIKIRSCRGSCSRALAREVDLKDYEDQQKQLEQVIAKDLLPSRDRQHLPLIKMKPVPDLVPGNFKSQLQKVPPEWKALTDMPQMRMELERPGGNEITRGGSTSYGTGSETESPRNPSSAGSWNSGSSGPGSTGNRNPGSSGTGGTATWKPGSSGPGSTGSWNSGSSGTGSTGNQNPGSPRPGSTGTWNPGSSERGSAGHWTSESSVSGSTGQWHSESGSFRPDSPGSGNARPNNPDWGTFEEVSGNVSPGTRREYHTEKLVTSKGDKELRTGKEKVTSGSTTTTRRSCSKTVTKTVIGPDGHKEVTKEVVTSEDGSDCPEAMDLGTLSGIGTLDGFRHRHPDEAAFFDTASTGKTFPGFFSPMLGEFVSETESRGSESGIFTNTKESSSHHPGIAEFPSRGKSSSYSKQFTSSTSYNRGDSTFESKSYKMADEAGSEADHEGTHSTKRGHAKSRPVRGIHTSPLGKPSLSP
T1 sequence (P02675 45-491 limits assumed): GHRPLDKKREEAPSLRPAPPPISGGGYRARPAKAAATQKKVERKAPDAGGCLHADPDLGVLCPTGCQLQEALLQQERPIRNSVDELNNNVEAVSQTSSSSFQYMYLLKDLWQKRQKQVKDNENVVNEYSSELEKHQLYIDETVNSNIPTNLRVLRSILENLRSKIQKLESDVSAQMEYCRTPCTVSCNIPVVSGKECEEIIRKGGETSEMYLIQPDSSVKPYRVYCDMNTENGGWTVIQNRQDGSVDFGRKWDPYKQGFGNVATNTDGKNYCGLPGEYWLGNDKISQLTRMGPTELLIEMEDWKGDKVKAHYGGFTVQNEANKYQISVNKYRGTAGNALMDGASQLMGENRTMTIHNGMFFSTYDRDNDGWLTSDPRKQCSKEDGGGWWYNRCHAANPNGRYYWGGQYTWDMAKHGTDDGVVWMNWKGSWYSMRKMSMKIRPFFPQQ
T1 sequence (P02679 27-437 isoform P02679-2 limits assumed): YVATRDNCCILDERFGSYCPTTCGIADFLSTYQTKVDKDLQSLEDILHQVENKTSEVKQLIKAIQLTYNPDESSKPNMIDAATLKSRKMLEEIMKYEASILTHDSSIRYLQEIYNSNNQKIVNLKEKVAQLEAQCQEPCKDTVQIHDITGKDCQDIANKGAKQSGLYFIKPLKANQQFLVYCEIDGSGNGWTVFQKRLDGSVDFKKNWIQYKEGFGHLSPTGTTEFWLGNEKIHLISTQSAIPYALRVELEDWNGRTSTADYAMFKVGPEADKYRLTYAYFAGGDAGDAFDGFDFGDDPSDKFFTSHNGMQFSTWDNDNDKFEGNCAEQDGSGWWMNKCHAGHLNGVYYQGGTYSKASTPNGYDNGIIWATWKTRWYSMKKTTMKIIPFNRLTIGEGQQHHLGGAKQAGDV

[3] = target: plasminogen activator inhibitor-1 (PAI-1) (Homo sapiens, UniProt P05121); conditions: higher than tPA; cited from earlier work
Chain of plasminogen activator inhibitor-1 (PAI-1) (P05121 24-402, species assumed): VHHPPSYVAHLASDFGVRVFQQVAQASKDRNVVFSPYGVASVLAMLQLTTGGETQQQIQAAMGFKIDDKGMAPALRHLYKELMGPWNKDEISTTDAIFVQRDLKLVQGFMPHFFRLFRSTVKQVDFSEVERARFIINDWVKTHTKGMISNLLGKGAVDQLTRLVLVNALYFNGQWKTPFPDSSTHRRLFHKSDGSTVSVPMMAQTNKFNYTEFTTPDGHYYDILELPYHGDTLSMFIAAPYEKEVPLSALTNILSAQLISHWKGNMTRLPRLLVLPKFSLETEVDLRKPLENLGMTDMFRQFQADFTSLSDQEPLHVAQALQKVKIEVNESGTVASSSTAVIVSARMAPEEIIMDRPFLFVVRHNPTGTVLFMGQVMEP

[4] = system: isolated rat aorta rings; experiment: PE-induced contraction of isolated rat aorta rings; assay type: cell-based
Description: FIG. 1A is a diagram describing the results of experiments on the effect of tPA on PE-induced contraction of isolated rat aorta rings. Contraction of aortic rings was induced by increasing the concentrations of phenylephrine (PE), in the absence of tPA (full triangles) or in the presence of 1 nM (filled squares) or 20 nM tPA (empty squares).
FIG. 1B describes the results of experiments in which the contraction of aortic rings was induced in the absence of TNK-tPA (filled triangles), in the presence of 1 nM tPA (filled squares) or 20 nM tPA (empty squares).
FIG. 4 is a graph describing the effect of tPA on phenylepbrine-induced contraction of isolated rat aorta rings in vitro. The contraction of the aorta rings was induced by varying concentrations of phenylephrine in the absence of tPA (filled triangles), in the presence of 1 nM of TA (filled squares) or in the presence of 10 nM tPA (empty squares). The experiments were performed according to procedures described earlier by Haj-Yehia A et al., FASEB J, 2000, 14:1411–1422.
The effect of TNK-tPA on PE-induced contraction was compared with the effect of tPA, in the isolated aorta rings. […]

[5] = in vitro, cited from earlier work
[6] = cited from earlier work

B1: TNK-tPA: bioengineered variant of tissue-type plasminogen activator with tetra-alanine substitution in the protease domain (protein)
chain: SYQVICRDEKTQMIYQQHQSWLRPVLRSNRVEYCWCNSGRAQCHSVPVKSCSEPRCFNGGTCQQALYFSDFVCQCPEGFAGKCCEIDTRATCYEDQGISYRGTWSTAESGAECTNWNSSALAQKPYSGRRPDAIRLGLGNHNYCRNPDRDSKPWCYVFKAGKYSSEFCSTPACSEGNSDCYFGNGSAYRGTHSLTESGASCLPWNSMILIGKVYTAQNPSAQALGLGKHNYCRNPDGDAKPWCHVLKNRRLTWEYCDVPSCSTCGLRQYSQPQFRIKGGLFADIASHPWQAAIFAAAAASPGERFLCGGILISSCWILSAAHCFQERFPPHHLTVILGRTYRVVPGEEEQKFEVEKYIVHKEFDDDTYDNDIALLQLKSDSSRCAQESSVVRTVCLPPADLQLPDWTECELSGYGKHEALSPFYSERLKEAHVRLYPSSRCTSQHLLNRTVTDNMLCAGDTRSGGPQANLHDACQGDSGGPLVCLNDGRMTLVGIISWGLGCGQKDVPGVYTKVTNYLDWIRDNMRP
In the case of B1, the “time required for 50% lysis relative to rtPA” value [1] is listed as “one third”, the relative fibrin specificity [2] is listed as 14 fold and the “resistance to PAI-1 relative to tPA” value [3] is listed as 80 fold. For the same molecule, the “effect on PE-induced vasoconstriction” value ([4]; 1 nM) was “stimulated”, the “effect on PE-induced vasoconstriction” value ([4]; 20 nM) was “increased its stimulatory effect” and the “potency relative to tPA” value ([5]; platelet-enriched clots) was 13 fold. For the same molecule, the “potency relative to tPA” value ([5]; whole blood clots) was 8 fold, the “efficacy compared with rtPA” value ([6]; comparative clinical trials) was “equivalent efficacy” and the non-cerebral bleeding episodes ([6]; in vivo) was 4.66%. For the same molecule, the “rate of intracranial hemorrhage compared with rtPA” value ([6]; in vivo) was “similar”.
